# Publication PMC5662698 (2017)
# No end group written: not given here.
# T1: DnaK-C15A/M404C/T437C (Escherichia coli (strain K12))
# T1 chain: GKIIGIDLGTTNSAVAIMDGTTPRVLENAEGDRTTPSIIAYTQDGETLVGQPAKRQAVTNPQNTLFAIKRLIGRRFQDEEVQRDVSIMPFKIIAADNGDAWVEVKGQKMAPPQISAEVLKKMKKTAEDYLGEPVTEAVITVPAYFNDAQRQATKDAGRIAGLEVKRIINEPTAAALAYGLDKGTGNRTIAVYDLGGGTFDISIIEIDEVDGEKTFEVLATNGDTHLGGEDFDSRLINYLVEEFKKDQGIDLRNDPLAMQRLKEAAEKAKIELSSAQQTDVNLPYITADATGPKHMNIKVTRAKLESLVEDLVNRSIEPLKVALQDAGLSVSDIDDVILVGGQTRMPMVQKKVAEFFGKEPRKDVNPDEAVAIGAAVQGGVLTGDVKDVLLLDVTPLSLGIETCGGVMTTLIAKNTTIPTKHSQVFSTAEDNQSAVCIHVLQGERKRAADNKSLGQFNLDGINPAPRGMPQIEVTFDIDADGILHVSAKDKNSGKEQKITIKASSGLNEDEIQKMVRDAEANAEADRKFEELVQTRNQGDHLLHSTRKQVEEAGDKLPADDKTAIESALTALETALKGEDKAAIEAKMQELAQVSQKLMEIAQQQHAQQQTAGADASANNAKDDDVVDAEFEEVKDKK
# How the values were obtained:
# [1] = target: BiP EPR construct BiP-C41A/C420A/V429C (human, UniProt P11021 19-654, C41A | C420A | V429C); assay: FP
# human BiP, wild type = human BiP, wild type (human, UniProt P11021 19-654); assay: FP
# [2] = target: BiP FRET construct BiP-C41A/C420A/V429C/T462C (human, UniProt P11021 19-654, C41A | C420A | V429C | T462C); assay: FP
# BiP-C41A/C420A = BiP-C41A/C420A (Homo sapiens); assay: FP
# DnaK-C15A/M404C/T437C = target: T1, DnaK-C15A/M404C/T437C; assay: FP
# [3] = target: TMR-labeled DnaK (DnaK FRET construct C15A/M404C/T437C labelled with tetramethylrhodamine) (E. coli, UniProt P0A6Y8 1-638, C15A | M404C | T437C, tetramethylrhodamine (TMR, from 5-IATR) on both introduced cysteines (M404C, T437C)); assay: ATP
# Chain of BiP-C41A/C420A (Homo sapiens) (chain, as listed by the source C41A C420A): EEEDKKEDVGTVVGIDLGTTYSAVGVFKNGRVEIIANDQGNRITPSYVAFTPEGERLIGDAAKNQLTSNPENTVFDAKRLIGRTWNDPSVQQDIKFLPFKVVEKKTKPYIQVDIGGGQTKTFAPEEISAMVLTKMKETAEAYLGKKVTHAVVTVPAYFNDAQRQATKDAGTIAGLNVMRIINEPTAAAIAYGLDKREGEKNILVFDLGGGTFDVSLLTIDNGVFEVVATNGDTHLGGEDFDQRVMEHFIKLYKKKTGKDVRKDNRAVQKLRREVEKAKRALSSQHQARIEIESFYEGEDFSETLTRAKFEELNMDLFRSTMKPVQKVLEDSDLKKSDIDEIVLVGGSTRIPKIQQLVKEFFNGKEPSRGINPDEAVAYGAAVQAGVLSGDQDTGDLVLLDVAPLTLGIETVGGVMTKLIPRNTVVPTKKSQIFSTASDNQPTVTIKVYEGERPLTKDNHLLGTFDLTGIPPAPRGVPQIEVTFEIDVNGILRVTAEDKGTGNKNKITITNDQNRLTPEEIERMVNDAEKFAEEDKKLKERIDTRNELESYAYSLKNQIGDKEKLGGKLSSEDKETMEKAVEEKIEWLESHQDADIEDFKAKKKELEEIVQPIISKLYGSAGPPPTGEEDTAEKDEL
# Chain of BiP EPR construct BiP-C41A/C420A/V429C (P11021 19-654 C41A/C420A/V429C): as the sequence (chain, as listed by the source C41A C420A) above, with V411C counted along it
# Chain of human BiP, wild type (P11021 19-654): as the sequence (chain, as listed by the source C41A C420A) above, with A23C, A402C counted along it
# Chain of BiP FRET construct BiP-C41A/C420A/V429C/T462C (P11021 19-654 C41A/C420A/V429C/T462C): as the sequence (chain, as listed by the source C41A C420A) above, with V411C, T444C counted along it
binder,measurement,setting,value
"fluorescein-NRLLLTG [NR peptide (NRLLLTG), fluorescein-labelled]",Kd,[1],820 nM
same,Kd,"human BiP, wild type",910 nM
same,Kd,[2],610 nM
same,Kd,BiP-C41A/C420A,850 nM
same,Kd,DnaK-C15A/M404C/T437C,2120 nM
DnaJ (natural protein) MAKQDYYEILGVSKTAEEREIRKAYKRLAMKYHPDRNQGDKEAEAKFKEIKEAYEVLTDSQKRAAYDQYGHAAFEQGGMGGGGFGGGADFSDIFGDVFGDIFGGGRGRQRAARGADLRYNMELTLEEAVRGVTKEIRIPTLEECDVCHGSGAKPGTQPQTCPTCHGSGQVQMRQGFFAVQQTCPHCQGRGTLIKDPCNKCHGHGRVERSKTLSVKIPAGVDTGDRIRLAGEGEAGEHGAPAGDLYVQVQVKQHPIFEREGNNLYCEVPINFAMAALGGEIEVPTLDGRVKLKVPGETQTGKLFRMRGKGVKSVRGGAQGDLLCRVVVETPVGLNERQKQLLQELQESFGGPTGEHNSPRSKSFFDGVKKFFDDLTR,Kd,[3],182 nM
